Source: PMC3836737, “Brd4 Is Displaced from HPV Replication Factories as They Expand and Amplify Viral DNA” (PLoS Pathogens, 2013)

B1: HPV16 E2 I73L (natural protein)
chain: METLCQRLNVCQDKILTHYENDSTDLRDHIDYWKHMRLECAIYYKAREMGFKHINHQVVPTLAVSKNKALQALELQLTLETIYNSQYSNEKWTLQDVSLEVYLTAPTGCIKKHGYTVEVQFDGDICNTMHYTNWTHIYICEEASVTVVEGQVDYYGLYYVHEGIRTYFVQFKDDAEKYSKNKVWEVHAGGQVILCPTSVFSSNEVSSPEIIRQHLANHPAATHTKAVALGTEETQTTIQRPRSEPDTGNPCHTTKLLHRDSVDSAPILTAFNSSHKGRINCNSNTTPIVHLKGDANTLKCLRYRFKKHCTLYTAVSSTWHWTGHNVKHKSAIVTLTYDSEWQRDQFLSQVKIPKTITVSTGFMSI
modifications: 35S-labeled
notes: source: in vitro translated (TNT Coupled Reticulocyte Lysate System, Promega), 35S-labeled
B2: HPV16 E2 R37K (natural protein)
chain: METLCQRLNVCQDKILTHYENDSTDLRDHIDYWKHMKLECAIYYKAREMGFKHINHQVVPTLAVSKNKALQAIELQLTLETIYNSQYSNEKWTLQDVSLEVYLTAPTGCIKKHGYTVEVQFDGDICNTMHYTNWTHIYICEEASVTVVEGQVDYYGLYYVHEGIRTYFVQFKDDAEKYSKNKVWEVHAGGQVILCPTSVFSSNEVSSPEIIRQHLANHPAATHTKAVALGTEETQTTIQRPRSEPDTGNPCHTTKLLHRDSVDSAPILTAFNSSHKGRINCNSNTTPIVHLKGDANTLKCLRYRFKKHCTLYTAVSSTWHWTGHNVKHKSAIVTLTYDSEWQRDQFLSQVKIPKTITVSTGFMSI
modifications: 35S-labeled
notes: as for B1

Biological target: T1, Purified FLAG-tagged Brd4 (UniProt O60885 1-1362)
T1 construct: source: purified, described previously [13]
Test: pull-down
Conditions: one partner purified

Binder | percent of wildtype E2 binding
B1 | < 20 % of wildtype E2 binding
B2 | < 20 % of wildtype E2 binding
